Assay results from paper PMC11829961 (Nature Communications, 2025).
One block for each molecule: values may come before it.

Assays:
IL-36R (20-333)-His6-Avi = target: T1, IL-36R (20-333)-His6-Avi (human, UniProt Q9HB29 20-333, biotin on the Avi tag (in vitro, BirA)); assay: SPR
T1 sequence (looked up): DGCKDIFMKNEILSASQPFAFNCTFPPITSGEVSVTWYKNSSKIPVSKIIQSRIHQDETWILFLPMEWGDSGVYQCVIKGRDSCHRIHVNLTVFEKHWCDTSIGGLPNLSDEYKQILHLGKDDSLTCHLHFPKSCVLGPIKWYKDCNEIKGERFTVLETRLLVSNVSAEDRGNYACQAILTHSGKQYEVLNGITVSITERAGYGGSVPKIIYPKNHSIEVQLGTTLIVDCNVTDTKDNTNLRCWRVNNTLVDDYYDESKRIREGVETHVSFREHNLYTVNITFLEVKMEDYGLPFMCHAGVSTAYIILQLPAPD

IL-36R (20-220)-His6-Avi = IL-36R (20-220)-His6-Avi (human, UniProt Q9HB29, biotin on the Avi tag (in vitro, BirA)); assay: crystal structure
[1] = patients who had received at least one dose; cited from earlier work

- Kd (IL-36R (20-333)-His6-Avi): ~600 nM
B1: Human IL-36α (aa 6–158) (ligand, UniProt Q9UHA7 6-158, looked up)
chain: KIDTPQQGSIQDINHRVWVLQDQTLIAVPRKDRMSPVTIALISCRHVETLEKDRGNPIYLGLNGLNLCLMCAKVGDQPTLQLKEKDIMDLYNQPEPVKSFLFYHSQSGRNSTFESVAFPGWFIAVSSEGGCPLILTQELGKANTTDFGLTMLF

- binding result (IL-36R (20-220)-His6-Avi): binds
B2: spesolimab-Fab (Fab, V domains shown)
VH: QVQLVQSGAEVKKPGASVKVSCKASGYSFTSSWIHWVKQAPGQGLEWMGEINPGNVRTNYNENFRNKVTMTVDTSISTAYMELSRLRSDDTAVYYCTVVFYGEPYFPYWGQGTLVTVSS
VL: QIVLTQSPGTLSLSPGERATMTCTASSSVSSSYFHWYQQKPGQAPRLWIYRTSRLASGVPDRFSGSGSGTDFTLTISRLEPEDAATYYCHQFHRSPLTFGAGTKLEIK

B3: spesolimab: IL-36R blocking antibody, positive control; approved for flares of GPP (antibody, chains of the INN, looked up, V domains shown)
VH: QVQLVQSGAEVKKPGASVKVSCKASGYSFTSSWIHWVKQAPGQGLEWMGEINPGNVRTNYNENFRNKVTMTVDTSISTAYMELSRLRSDDTAVYYCTVVFYGEPYFPYWGQGTLVTVSS
VL: QIVLTQSPGTLSLSPGERATMTCTASSSVSSSYFHWYQQKPGQAPRLWIYRTSRLASGVPDRFSGSGSGTDFTLTISRLEPEDAATYYCHQFHRSPLTFGAGTKLEIK
- anti-drug antibodies observed, patients [1]: 23 out of 50
